Data from patent US20180155451A1 (published 2018).

T1: FcγRIIb extracellular domain with C-terminal His tag (human, UniProt P31994 43-217)
T1 construct: extracellular domain; Expressed in FreeStyle293 cells; analyte in the Biacore assay; also called FcgRIIb; 2b; not shown: His tag at the C terminus
T1 sequence (looked up): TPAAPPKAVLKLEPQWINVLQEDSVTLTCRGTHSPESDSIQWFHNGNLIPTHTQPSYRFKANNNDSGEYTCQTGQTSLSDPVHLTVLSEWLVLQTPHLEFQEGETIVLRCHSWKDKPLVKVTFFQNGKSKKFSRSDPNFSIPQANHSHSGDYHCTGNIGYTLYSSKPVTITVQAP

T2: FcγRIIb (human, UniProt P31994 43-217)
T2 construct: extracellular domain; also called FcgRIIb; 2b; not shown: His tag at the C terminus
T2 sequence (looked up): T1 sequence (looked up)

B1: GpH7-A5/GpH7-B3 variant S298_20W/GpL16-k0 (He Ab) (antibody, human IgG1, kappa)
heavy 1: not shown
heavy 2: not shown
light: DIVMTQSPLSLPVTPGEPASISCQASESLVHSNRNTYLHWYLQKPGQSPQLLIYKVSNRFSGVPDRFSGSGSGTDFTLKISRVEAEDVGVYYCSQNTHVPPTFGQGTKVEIERTVAAPSVFIFPPSDEQLKSGTASVVCLLNNFYPREAKVQWKVDNALQSGNSQESVTEQDSKDSTYSLSSTLTLSKADYEKHKVYACEVTHQGLSSPVTKSFNRGEC
notes: Heterodimerized anti-glypican-3 IgG1; the mutation stands in the GpH7-B3 chain only
B2: GpH7-A5/GpH7-B3 variant S324_02A/GpL16-k0 (He Ab) (antibody, human IgG1, kappa)
heavy 1: not shown
heavy 2: not shown
light: B1 light
notes: as for B1
B3: GpH7-A5/GpH7-B3 variant S324_03V/GpL16-k0 (He Ab) (antibody, human IgG1, kappa)
heavy 1: not shown
heavy 2: not shown
light: B1 light
notes: as for B1
B4: GpH7-A5/GpH7-B3 variant S267_04F/GpL16-k0 (antibody, human IgG1, kappa)
heavy 1: not shown
heavy 2: not shown
light: B1 light
notes: He Ab: mutation only in the GpH7-B3 H chain; EU numbering; also called He Ab
B5: GpH7-A5/GpH7-B3 variant S267_05P/GpL16-k0 (antibody, human IgG1, kappa)
heavy 1: not shown
heavy 2: not shown
light: B1 light
notes: as for B4
B6: GpH7-A5/GpH7-B3 variant S267_11K/GpL16-k0 (antibody, human IgG1, kappa)
heavy 1: not shown
heavy 2: not shown
light: B1 light
notes: as for B4
B7: GpH7-A5/GpH7-B3 variant S267_12R/GpL16-k0 (antibody, human IgG1, kappa)
heavy 1: not shown
heavy 2: not shown
light: B1 light
notes: as for B4
B8: GpH7-A5/GpH7-B3 variant S267_15Y/GpL16-k0 (antibody, human IgG1, kappa)
heavy 1: not shown
heavy 2: not shown
light: B1 light
notes: as for B4
B9: GpH7-A5/GpH7-B3 variant S267_16H/GpL16-k0 (antibody, human IgG1, kappa)
heavy 1: not shown
heavy 2: not shown
light: B1 light
notes: as for B4
B10: GpH7-A5/GpH7-B3 variant S267_18N/GpL16-k0 (antibody, human IgG1, kappa)
heavy 1: not shown
heavy 2: not shown
light: B1 light
notes: as for B4
B11: GpH7-A5/GpH7-B3 variant S267_20W/GpL16-k0 (antibody, human IgG1, kappa)
heavy 1: not shown
heavy 2: not shown
light: B1 light
notes: as for B4
B12: GpH7-A5/GpH7-B3 variant V266_01G/GpL16-k0 (antibody, human IgG1, kappa)
heavy 1: not shown
heavy 2: not shown
light: B1 light
notes: as for B4
B13: GpH7-A5/GpH7-B3 variant V266_04F/GpL16-k0 (antibody, human IgG1, kappa)
heavy 1: not shown
heavy 2: not shown
light: B1 light
notes: as for B4
B14: GpH7-A5/GpH7-B3 variant V266_05P/GpL16-k0 (antibody, human IgG1, kappa)
heavy 1: not shown
heavy 2: not shown
light: B1 light
notes: as for B4
B15: GpH7-A5/GpH7-B3 variant V266_09D/GpL16-k0 (antibody, human IgG1, kappa)
heavy 1: not shown
heavy 2: not shown
light: B1 light
notes: as for B4
B16: GpH7-A5/GpH7-B3 variant V266_10E/GpL16-k0 (antibody, human IgG1, kappa)
heavy 1: not shown
heavy 2: not shown
light: B1 light
notes: as for B4
B17: GpH7-A5/GpH7-B3 variant V266_11K/GpL16-k0 (antibody, human IgG1, kappa)
heavy 1: not shown
heavy 2: not shown
light: B1 light
notes: as for B4
B18: GpH7-A5/GpH7-B3 variant V266_13S/GpL16-k0 (antibody, human IgG1, kappa)
heavy 1: not shown
heavy 2: not shown
light: B1 light
notes: as for B4
B19: GpH7-A5/GpH7-B3 variant V266_15Y/GpL16-k0 (antibody, human IgG1, kappa)
heavy 1: not shown
heavy 2: not shown
light: B1 light
notes: as for B4
B20: GpH7-A5/GpH7-B3 variant V266_16H/GpL16-k0 (antibody, human IgG1, kappa)
heavy 1: not shown
heavy 2: not shown
light: B1 light
notes: as for B4
B21: GpH7-A5/GpH7-B3 variant V266_18N/GpL16-k0 (antibody, human IgG1, kappa)
heavy 1: not shown
heavy 2: not shown
light: B1 light
notes: as for B4
B22: GpH7-A5/GpH7-B3 variant V266_20W/GpL16-k0 (antibody, human IgG1, kappa)
heavy 1: not shown
heavy 2: not shown
light: B1 light
notes: as for B4

What follows are binders tested against T1, FcγRIIb extracellular domain with … (assay: SPR (Biacore), antibody captured on antigen-peptide chip, FcγR as analyte; relative binding).
With B1 the He/Con_2b was 41.1 % of GpH7-A5/GpH7-B3/GpL16-k0 (=100). For B2, the He/Con_2b was 78.3 % of GpH7-A5/GpH7-B3/GpL16-k0 (=100). In the case of B3, the He/Con_2b is reported as 97.8 % of GpH7-A5/GpH7-B3/GpL16-k0 (=100).

These binders were tested against T3, FcγRIa extracellular domain with C-terminal His tag (human, UniProt P12314 16-292) in the same assay as above.
T3 construct: extracellular domain; Expressed in FreeStyle293 cells; analyte in the Biacore assay; also called FcgRI; 1a; not shown: His tag at the C terminus
T3 sequence (P12314 16-292): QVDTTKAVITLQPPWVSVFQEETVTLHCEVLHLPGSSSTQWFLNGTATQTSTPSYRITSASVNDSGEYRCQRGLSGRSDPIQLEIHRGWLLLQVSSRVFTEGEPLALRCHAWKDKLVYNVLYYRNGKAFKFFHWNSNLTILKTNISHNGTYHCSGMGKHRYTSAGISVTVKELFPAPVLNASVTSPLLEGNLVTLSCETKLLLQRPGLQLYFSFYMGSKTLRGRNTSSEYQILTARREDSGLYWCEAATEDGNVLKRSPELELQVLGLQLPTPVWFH
B1 was tested, and the He/Con_1a was 104 % of GpH7-A5/GpH7-B3/GpL16-k0 (=100). With B2 the He/Con_1a was 103 % of GpH7-A5/GpH7-B3/GpL16-k0 (=100). For B3, the He/Con_1a was 104 % of GpH7-A5/GpH7-B3/GpL16-k0 (=100).

The binders below were run against T2, FcγRIIb (assay: SPR (Biacore), captured antibody, soluble FcγR; relative to GpH7-A5/GpH7-B3/GpL16-k0).
B4 was tested, and the He/Con_2b was 48 relative, HeCon Ab = 100. In the case of B5, the He/Con_2b is reported as 31.5 relative, HeCon Ab = 100. For B6, the He/Con_2b was 12.2 relative, HeCon Ab = 100. In the case of B7, the He/Con_2b is reported as 11.3 relative, HeCon Ab = 100. In the case of B8, the He/Con_2b is reported as 37.9 relative, HeCon Ab = 100. For B9, the He/Con_2b was 65.9 relative, HeCon Ab = 100. B10 was tested, and the He/Con_2b was 47.7 relative, HeCon Ab = 100. B11 was tested, and the He/Con_2b was 57.2 relative, HeCon Ab = 100. B12 was tested, and the He/Con_2b was 51.5 relative, HeCon Ab = 100. In the case of B13, the He/Con_2b is reported as 57.6 relative, HeCon Ab = 100. For B14, the He/Con_2b was 0.4 relative, HeCon Ab = 100. With B15 the He/Con_2b was 10.1 relative, HeCon Ab = 100. B16 was tested, and the He/Con_2b was 15.2 relative, HeCon Ab = 100. B17 was tested, and the He/Con_2b was 1 relative, HeCon Ab = 100. With B18 the He/Con_2b was 54.4 relative, HeCon Ab = 100. In the case of B19, the He/Con_2b is reported as 49.4 relative, HeCon Ab = 100. For B20, the He/Con_2b was 57.2 relative, HeCon Ab = 100. B21 was tested, and the He/Con_2b was 69.7 relative, HeCon Ab = 100. B22 was tested, and the He/Con_2b was 71.9 relative, HeCon Ab = 100.

These binders were tested against T4, FcγRIa (human, UniProt P12314 16-292) in the same assay as above.
T4 construct: extracellular domain; also called FcgRI; 1a; not shown: His tag at the C terminus
T4 sequence (P12314 16-292): as above
For B4, the He/Con_1a was 97.7 relative, HeCon Ab = 100. In the case of B5, the He/Con_1a is reported as 91.8 relative, HeCon Ab = 100. For B6, the He/Con_1a was 93.3 relative, HeCon Ab = 100. With B7 the He/Con_1a was 92.7 relative, HeCon Ab = 100. For B8, the He/Con_1a was 94.2 relative, HeCon Ab = 100. In the case of B9, the He/Con_1a is reported as 100 relative, HeCon Ab = 100. In the case of B10, the He/Con_1a is reported as 102 relative, HeCon Ab = 100. With B11 the He/Con_1a was 99.4 relative, HeCon Ab = 100. With B12 the He/Con_1a was 91.3 relative, HeCon Ab = 100. In the case of B13, the He/Con_1a is reported as 96.7 relative, HeCon Ab = 100. In the case of B14, the He/Con_1a is reported as 71.9 relative, HeCon Ab = 100. B15 was tested, and the He/Con_1a was 79.3 relative, HeCon Ab = 100. For B16, the He/Con_1a was 81.9 relative, HeCon Ab = 100. In the case of B17, the He/Con_1a is reported as 64.4 relative, HeCon Ab = 100. For B18, the He/Con_1a was 90.6 relative, HeCon Ab = 100. In the case of B19, the He/Con_1a is reported as 93.3 relative, HeCon Ab = 100. With B20 the He/Con_1a was 89.1 relative, HeCon Ab = 100. B21 was tested, and the He/Con_1a was 99.5 relative, HeCon Ab = 100. For B22, the He/Con_1a was 91.4 relative, HeCon Ab = 100.

These binders were tested against T4, FcγRIa (assay: SPR; He/Con_1a divided by He/Con_2b (FcγRIIb as reference)).
For B4, the “Ia/IIb He_1a/2b” value was 2.04 ratio. For B5, the “Ia/IIb He_1a/2b” value was 2.91 ratio. For B6, the “Ia/IIb He_1a/2b” value was 7.65 ratio. B7 was tested, and the “Ia/IIb He_1a/2b” value was 8.21 ratio. With B8 the “Ia/IIb He_1a/2b” value was 2.48 ratio. With B9 the “Ia/IIb He_1a/2b” value was 1.52 ratio. For B10, the “Ia/IIb He_1a/2b” value was 2.15 ratio. For B11, the “Ia/IIb He_1a/2b” value was 1.74 ratio. B12 was tested, and the “Ia/IIb He_1a/2b” value was 1.77 ratio. B13 was tested, and the “Ia/IIb He_1a/2b” value was 1.68 ratio. With B14 the “Ia/IIb He_1a/2b” value was 205 ratio. In the case of B15, the “Ia/IIb He_1a/2b” value is reported as 7.88 ratio. With B16 the “Ia/IIb He_1a/2b” value was 5.37 ratio. B17 was tested, and the “Ia/IIb He_1a/2b” value was 63.5 ratio. In the case of B18, the “Ia/IIb He_1a/2b” value is reported as 1.67 ratio. B19 was tested, and the “Ia/IIb He_1a/2b” value was 1.89 ratio. B20 was tested, and the “Ia/IIb He_1a/2b” value was 1.56 ratio. With B21 the “Ia/IIb He_1a/2b” value was 1.43 ratio. With B22 the “Ia/IIb He_1a/2b” value was 1.27 ratio.
